Data on 15 molecules can be found in patent publication US20240400701A1 (LANOVA MEDICINES DEVELOPMENT, published 2024).

T1: human AMHRII (anti-Mullerian hormone receptor type 2) (human, UniProt Q16671 18-573)
T1 construct: whole, on cells; also called AMHR2; human AMHR2
T1 sequence (looked up): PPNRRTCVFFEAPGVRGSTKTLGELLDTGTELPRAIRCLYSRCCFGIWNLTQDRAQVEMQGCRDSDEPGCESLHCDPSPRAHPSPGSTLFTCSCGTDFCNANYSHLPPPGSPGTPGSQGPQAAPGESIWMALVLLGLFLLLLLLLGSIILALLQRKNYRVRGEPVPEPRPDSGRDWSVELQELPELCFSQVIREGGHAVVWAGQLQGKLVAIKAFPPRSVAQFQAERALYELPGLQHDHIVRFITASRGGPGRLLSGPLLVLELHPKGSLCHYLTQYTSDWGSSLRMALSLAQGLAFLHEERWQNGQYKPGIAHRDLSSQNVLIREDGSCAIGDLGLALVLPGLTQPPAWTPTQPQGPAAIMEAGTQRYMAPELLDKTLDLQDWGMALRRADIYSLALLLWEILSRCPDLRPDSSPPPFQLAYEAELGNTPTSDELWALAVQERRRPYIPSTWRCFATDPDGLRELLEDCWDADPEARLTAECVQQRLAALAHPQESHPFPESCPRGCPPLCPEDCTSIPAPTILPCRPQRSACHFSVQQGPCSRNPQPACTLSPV

B1: 31D9B3 H1L2 hIgG1 (antibody, V domains shown)
VH: QVQLVQSGAEVKKPGASVKVSCKASGYTFTDYWVSWVRQAPGQGLEWMGEIYPKNGVSNFNEKFKGRVTMTTDTSTSTAYMELRSLRSDDTAVYYCARQRDYWGQGTLVTVSS
VL: DVVMTQSPLSLPVTLGQPASISCRSSQSLEYGDGYTYLEWYLQRPGQSPRLLIYGVSNRFSGVPDRFSGSGSGTDFTLKISRVEAEDVGVYYCFQATHDPNTFGQGTKLEIK
notes: Humanized, human IgG1; also called 31D9B3 H1L2 hlgG1; 31D9B3 VH1-VL2 hlgG1
B2: 94C4C3 H4L1 hIgG1 (antibody, V domains shown)
VH: QVQLQESGPGLVKPSETLSLTCTVTGYSITSDYAWNWIRQFPGKKLEWMGYISYSGSISYNPSLKSRITISRDTSKNQFFLQLSSVTAADTAVYYCARSRYSWFDYWGQGTLVTVSS
VL: EIVLTQSPGTLSLSPGERATLSCSASESVDTYGNSFMHWYQQKPGQAPRLLIYRASSLESGIPDRFSGSGSGTDFTLTISRLEPEDFAVYYCQQSNEDPYTFGGGTKVEIK
notes: Humanized, human IgG1; also called 94C4C3 H4L1 hlgG1
B3: 94C4C3 H4L4 hIgG1 (antibody, V domains shown)
VH: QVQLQESGPGLVKPSETLSLTCTVTGYSITSDYAWNWIRQFPGKKLEWMGYISYSGSISYNPSLKSRITISRDTSKNQFFLQLSSVTAADTAVYYCARSRYSWFDYWGQGTLVTVSS
VL: DIVLTQSPGTLSVSPGERATLSCSASESVDTYGNSFMHWYQQKPGQPPKLLIYRASSLESGIPVRFSGSGSRTDFTLTISRVEAEDFAVYYCQQSNEDPYTFGGGTKLEIK
notes: Humanized, human IgG1; also called 94C4C3 H4L4 hlgG1
B4: 94C4C3 H4L2 hIgG1 (antibody, V domains shown)
VH: QVQLQESGPGLVKPSETLSLTCTVTGYSITSDYAWNWIRQFPGKKLEWMGYISYSGSISYNPSLKSRITISRDTSKNQFFLQLSSVTAADTAVYYCARSRYSWFDYWGQGTLVTVSS
VL: EIVLTQSPGTLSLSPGERATLSCSASESVDTYGNSFMHWYQQKPGQPPRLLIYRASSLESGIPVRFSGSGSRTDFTLTISRLEPEDFAVYYCQQSNEDPYTFGGGTKVEIK
notes: Humanized, human IgG1; also called 94C4C3 H4L2 hlgG1
B5: 94C4C3 H4L3 hIgG1 (antibody, V domains shown)
VH: QVQLQESGPGLVKPSETLSLTCTVTGYSITSDYAWNWIRQFPGKKLEWMGYISYSGSISYNPSLKSRITISRDTSKNQFFLQLSSVTAADTAVYYCARSRYSWFDYWGQGTLVTVSS
VL: EIVLTQSPGTLSLSPGERATLSCSASESVDTYGNSFMHWYQQKPGQPPRLLIYRASSLESGIPVRFSGSGSRTDFTLTISRVEAEDFAVYYCQQSNEDPYTFGGGTKLEIK
notes: Humanized, human IgG1; also called 94C4C3 H4L3 hlgG1
B6: 31D9B3 H1L1 hIgG1 (antibody, V domains shown)
VH: QVQLVQSGAEVKKPGASVKVSCKASGYTFTDYWVSWVRQAPGQGLEWMGEIYPKNGVSNFNEKFKGRVTMTTDTSTSTAYMELRSLRSDDTAVYYCARQRDYWGQGTLVTVSS
VL: DVVMTQSPLSLPVTLGQPASISCRSSQSLEYGDGYTYLEWFQQRPGQSPRRLIYGVSNRFSGVPDRFSGSGSGTDFTLKISRVEAEDVGVYYCFQATHDPNTFGQGTKLEIK
notes: Humanized, human IgG1; also called 31D9B3 H1L1 hlgG1
B7: 31D9B3 H2L3 hIgG1 (antibody, V domains shown)
VH: QVQLVQSGAEVVKPGASVKVSCKASGYTFTDYWVSWVRQAPGQGLEWIGEIYPKNGVSNFNEKFKGRVTMTVDTSTSTAYMELRSLRSDDTAVYYCTRQRDYWGQGTLVTVSS
VL: DVVMTQSPLSLPVTLGQPASISCRSSQSLEYGDGYTYLEWYLQRPGQSPRLLIYGVSNRFSGVPDRFIGSGSGTDFTLKISRVEAEDVGVYYCFQATHDPNTFGAGTKLEIK
notes: Humanized, human IgG1; also called 31D9B3 H2L3 hlgG1
B8: 31D9B3 H2L4 hIgG1 (antibody, V domains shown)
VH: QVQLVQSGAEVVKPGASVKVSCKASGYTFTDYWVSWVRQAPGQGLEWIGEIYPKNGVSNFNEKFKGRVTMTVDTSTSTAYMELRSLRSDDTAVYYCTRQRDYWGQGTLVTVSS
VL: DVVLTQSPLSLPVTLGQPASISCRSSQSLEYGDGYTYLEWYLQRPGQSPQLLIYGVSNRFSGVPDRFIGSGSGTDFTLKISRVEPEDVGVYYCFQATHDPNTFGAGTKLEIK
notes: Humanized, human IgG1; also called 31D9B3 H2L4 hlgG1
B9: 31D9B3 H2L2 hIgG1 (antibody, V domains shown)
VH: QVQLVQSGAEVVKPGASVKVSCKASGYTFTDYWVSWVRQAPGQGLEWIGEIYPKNGVSNFNEKFKGRVTMTVDTSTSTAYMELRSLRSDDTAVYYCTRQRDYWGQGTLVTVSS
VL: DVVMTQSPLSLPVTLGQPASISCRSSQSLEYGDGYTYLEWYLQRPGQSPRLLIYGVSNRFSGVPDRFSGSGSGTDFTLKISRVEAEDVGVYYCFQATHDPNTFGQGTKLEIK
notes: Humanized, human IgG1; also called 31D9B3 H2L2 hlgG1
B10: 31D9B3 H2L1 hIgG1 (antibody, V domains shown)
VH: QVQLVQSGAEVVKPGASVKVSCKASGYTFTDYWVSWVRQAPGQGLEWIGEIYPKNGVSNFNEKFKGRVTMTVDTSTSTAYMELRSLRSDDTAVYYCTRQRDYWGQGTLVTVSS
VL: DVVMTQSPLSLPVTLGQPASISCRSSQSLEYGDGYTYLEWFQQRPGQSPRRLIYGVSNRFSGVPDRFSGSGSGTDFTLKISRVEAEDVGVYYCFQATHDPNTFGQGTKLEIK
notes: Humanized, human IgG1; also called 31D9B3 H2L1 hlgG1
B11: 31D9B3 H1L3 hIgG1 (antibody, V domains shown)
VH: QVQLVQSGAEVKKPGASVKVSCKASGYTFTDYWVSWVRQAPGQGLEWMGEIYPKNGVSNFNEKFKGRVTMTTDTSTSTAYMELRSLRSDDTAVYYCARQRDYWGQGTLVTVSS
VL: DVVMTQSPLSLPVTLGQPASISCRSSQSLEYGDGYTYLEWYLQRPGQSPRLLIYGVSNRFSGVPDRFIGSGSGTDFTLKISRVEAEDVGVYYCFQATHDPNTFGAGTKLEIK
notes: Humanized, human IgG1; also called 31D9B3 H1L3 hlgG1
B12: 31D9B3 H1L4 hIgG1 (antibody, V domains shown)
VH: QVQLVQSGAEVKKPGASVKVSCKASGYTFTDYWVSWVRQAPGQGLEWMGEIYPKNGVSNFNEKFKGRVTMTTDTSTSTAYMELRSLRSDDTAVYYCARQRDYWGQGTLVTVSS
VL: DVVLTQSPLSLPVTLGQPASISCRSSQSLEYGDGYTYLEWYLQRPGQSPQLLIYGVSNRFSGVPDRFIGSGSGTDFTLKISRVEPEDVGVYYCFQATHDPNTFGAGTKLEIK
notes: Humanized, human IgG1; also called 31D9B3 H1L4 hlgG1
B13: 31D9B3 H3L1 hIgG1 (antibody, V domains shown)
VH: QVQLVQSGAEVKVPGASVKMSCKASGYTFTDYWVSWVRQSPGQGLEWIGEIYPKNGVSNFNEKFKGRVTLTVDKSTSTAYMELRSLRSDDTAVYYCTRQRDYWGQGVLVTVSS
VL: DVVMTQSPLSLPVTLGQPASISCRSSQSLEYGDGYTYLEWFQQRPGQSPRRLIYGVSNRFSGVPDRFSGSGSGTDFTLKISRVEAEDVGVYYCFQATHDPNTFGQGTKLEIK
notes: Humanized, human IgG1; also called 31D9B3 H3L1 hlgG1
B14: 31D9B3 H3L3 hIgG1 (antibody, V domains shown)
VH: QVQLVQSGAEVKVPGASVKMSCKASGYTFTDYWVSWVRQSPGQGLEWIGEIYPKNGVSNFNEKFKGRVTLTVDKSTSTAYMELRSLRSDDTAVYYCTRQRDYWGQGVLVTVSS
VL: DVVMTQSPLSLPVTLGQPASISCRSSQSLEYGDGYTYLEWYLQRPGQSPRLLIYGVSNRFSGVPDRFIGSGSGTDFTLKISRVEAEDVGVYYCFQATHDPNTFGAGTKLEIK
notes: Humanized, human IgG1; also called 31D9B3 H3L3 hlgG1
B15: 31D9B3 H3L2 hIgG1 (antibody, V domains shown)
VH: QVQLVQSGAEVKVPGASVKMSCKASGYTFTDYWVSWVRQSPGQGLEWIGEIYPKNGVSNFNEKFKGRVTLTVDKSTSTAYMELRSLRSDDTAVYYCTRQRDYWGQGVLVTVSS
VL: DVVMTQSPLSLPVTLGQPASISCRSSQSLEYGDGYTYLEWYLQRPGQSPRLLIYGVSNRFSGVPDRFSGSGSGTDFTLKISRVEAEDVGVYYCFQATHDPNTFGQGTKLEIK
notes: Humanized, human IgG1; also called 31D9B3 H3L2 hlgG1

The target of one assay is T1, human AMHRII (anti-Mullerian hormone …). Briefly: FACS on Rko cells over-expressing human AMHR2. The protocol:
Rko cells over-expressing AMHR2 were harvested from flasks. 100 μl of 1×10⁶ cells/ml of cells were incubated with primary PTM antibodies in 3-fold serial dilutions starting from 300 nM to 0.001 nM for 30 minutes on ice. After being washed with 200 μl of FACS buffer twice, cells were incubated with secondary antibody for 30 minutes on ice. Cells were washed with 200 μl of FACS buffer twice and analyzed by FACS.
B1: the EC50 (usually the concentration at which the effect is half-maximal) was 1.21 nM and the “Top (MFI)” value came out at 18300 MFI.

For a further assay the target is unchanged. Briefly: FACS on CHO-K1 cells over-expressing human AMHR2. How it is done: (§1) CHO-K1 cells over-expressed AMHR2 were harvested from flasks. 100 μl of 1×10⁶ cells/ml of cells were incubated with the humanized antibodies in 3-fold serial dilutions starting from 300 nM to 0.001 nM for 30 minutes on ice. After being washed with 200 μl of FACS buffer twice, cells were incubated with secondary antibody for 30 minutes on ice. Cells were washed with 200 μl of FACS buffer twice and analyzed by FACS.
For B2, the EC50 worked out at 1.12 nM and the “Top (MFI)” value was 49500 MFI.
For the molecule B3, it took 1.09 nM to reach a half-maximal effect (EC50) and the “Top (MFI)” value was 57900 MFI.
On the same counts, the results for B4 are 1.02 nM and 48700 MFI.
For B5 the same measures were 1.16 nM and 51100 MFI.

The target is the same in the next assay. The assay is described as follows: FACS on CHO-K1 cells over-expressing human AMHR2. This is another data set of the same source. How it is done: as §1
Consider B1, for which a half-maximal effect (EC50) was put at 1.49 nM and the “Top (MFI)” value came out at 36200 MFI.
On the same counts, the results for B6 are 89.1 nM and 8940 MFI.
Turning to B7, the half-maximal effective concentration (EC50) was 1.28 nM and the “Top (MFI)” value is 36700 MFI.
For B8 the same measures were 1.67 nM and 39200 MFI.
With B9, a half-maximal effect (EC50) was put at 1.58 nM and the “Top (MFI)” value came to 37900 MFI.
For B10 the same measures were 22.5 nM and 19100 MFI.
On the same counts, the results for B11 are 1.36 nM and 34700 MFI.
On the same counts, the results for B12 are 1.42 nM and 34100 MFI.

Another assay has the same target. The assay is described as follows: FACS on CHO-K1 cells over-expressing human AMHR2. This is another data set of the same source. The protocol: as §1
Consider B13, for which the EC50 turned out to be 3.01 nM and the “Top (MFI)” value came to 19600 MFI.
On the same counts, the results for B14 are 1.3 nM and 38000 MFI.
For B15 the same measures were 1.05 nM and 37900 MFI.

For a further assay the target is unchanged. The assay is described as follows: FACS on CHO-K1 cells over-expressing human AMHR2. The source holds these as a separate data set. The protocol: as §1
With B1, the EC50 is 1.06 nM and the “Top (MFI)” value is 26700 MFI.
